Experimental data reported in a protein production outcome set (Wang et al. 2014).

Experiment: label from the status in PepcDB records

Row | Sequence | protein production
1 | MLFIFLTIAALGLSFWAQFKVKSNFEKYSKVEASSGRTGAETARRILDINGLYDVPVEPVRGTLTDHYDPTRRVVRLSEPVYYGRSISAISVASHEVGHALQHQESYGALVLRHKIFPVVNFASGVAPLLFLGGMLLGSLNLIGLGIILFSAAVFFQLITLPVEFNASSRAKQIIVSEGFIRNNEENGVNKVLSAAALTYVAAALVSLFELLRFVMIFLNGRDEN | failed
2 | MLFKTIFYQKLQKKVTTLFNLETERVIREIENLNKNNPKVIFQAPEGLKLKVEKEIEKIKQYFKQKNINIEIYLWGNTCFGACDLIDNHVKNLNVDLIIHYGHEKLSYANPEIKTLFIPAYHIFNKDEEEKILNDIKNFIEKHKSGGKKVAIATTIQYKKLLKDFNPSIILGCRGEVKEGDVILFVGTGRFHPLMIAYKYQKEVFIYNPLSKCFDKISEEEINKFIKKRILAISKLLLNKPKKVGVVLSTKKGQCRKRVFDEIIKLLEENDVNYLPILVDNISPDILFYDVDCYIIVACPRIVLDDYILYKKPIYTPEEFKLFLKNSFKYKFDEIKEDDFLEHHHHHH | not failed
3 | MLFLVKEIYLQHLIQFFYVGFGIFLLYLGGNLLLKSSVGIATYLKVPTLLIGVTIVSFSTSAPELFTSLVAAFKGKNEIVVSNVIGSNIINMLLALPLAGFFLKIKADFKRLKLSFMFLFLLMFLLLLLSFDFRSYSFFVTPYNRFSSFSILILFLSYLLLFYKEEKEYASLENSFQEGASNLNQSFNFIFFNLLSFAISMYFLYLGSKLLVDGALYIANNVFNVSEKLIGIILVAFGTSVPELVVSLFAIIRKESDIAFGNIIGSNIFNIGFILASSSFFRPILLQDIYILDFSIMVFITLVLFLVVKFKGVFGRGISLIFLLLYFLYNLMLFNFY | failed
4 | MLFRHKGILYLFLSSLIISAANPVIAKLITLGNEHLVNGRNPISFCNVLFAGNFIAVLTLILIHFRELKEFQPEHLTAKNWCLIFLAALFAGFLTPTLFFLGLMYTNVINVVLISNLQIPMTLLAGWIFLGEVPNIRVTTGAFLATLGVFAIVILQYWLGGAGALTPNPEMKTGPLFIFLSSIPRSGEICIFLAVVSSTASTIIGFHALRRLPHYLFSILKMLLGLVLFFFIVISMFGWHHFADLFSPFLWEWMLFYGSVIIALRYYFSMLGMKHAKVAEVAISSSIIPLMSIIFSYLILGEVPGISQIIGGSLILFGIYVALTGKLQAPEKTEILEKPSGFSGV | failed
5 | MLFTQALLVTLVGIIATIDYNGPLFMIHRPLVTSAMVGLVLGDFTQGVLIGSALELTWLGVTGIGGYTPPDTISGAIIGTAFGILSGQGETAGIAIAVPIAVATQQLDVLAKTLDVYFVKKADNDAKNGDYSKIGFYHYSSLVLITLFKIVPIFLAIMLGGEYVADLFAKVPPIVMQGLNSAGALLPSIGFGMLLNMMLKKNMWVFLLIGFICSVYGGMSTIGISLVGIAVAYFYDMIGSKPQETTSSSDVEEDLDL | failed
6 | MLGAAPENCTVNELNPDRANQLRSQGFTVTEQDATAYLPNQLYDVVIMNPPFGRVKGKRFRLAGEMGTTSQIDQAIALHSLQAMKDDGRAVLILG | failed
7 | MLGGNNDNPVPQVLMNDSQFRYQSNTSLNQLHLLGTMRAGCTIDPVNYFANDNLAPMMRLNSTRGRETENNNIMQRQQKLQISLNYNYNNNNTVVQDEVPKQNLVSTGLRLSYDDDERNSSVTSANGSITTPVYQSLGDNIRLDLNRQNDELDQFIKFRADQMAKGVRDIKQRHVTSFVTALEKDVSKKLQEKDHEIESMNKKNRELVDKIKQVAVEAQNWHYKAKYNESVVNALKVNLQQVMSHGNDNNAVGGGVADHHQMKEGFGDSEIDDEAASYNYLNIPGMPSTGMRCKLCNVKNVSVLLVPCRHLSLCKDCDVFTGVCPVCQSLKTSSVQVFFF | failed
8 | MLGNTLVGRYQIISHLGGGGFGETFVACDTHLPGLPKCVVKKLQPQANDPATLEIARRLFDTEAQVLYKLGSCDRIPQLLAYFEEDAEFYLVQEFIPGHDLSKELTPGKVFTQDEVTILLQEILTILEFVHQQNVIHRDINPRNLLRRQDGKLILIDFGAVKQITTQIVTPTGENKSTVIIGTPGYIPGEQAQGNPKFSSDIYAVGIVAIQALTGLLPHQLEHDADTHEIIWQNHAQVSSEFARFIDKMVCYDFRQRYAAATTALQALTELTQPASNTIAITPTLPPAKFRFNHTKKSIFIKLLLAILLTSATGIASVFVVNSINSNNATDLAKKGNTFFELQRYKDALSAYEQAVDIRPDYAPAWQGKGKTLFRLKQYQDALTAYDKAIQIQPDYVEAWSGRGFSLQNLQRYSEAIASFDKALQLNENYPEVWNARGEAFSNLKQYDQAIKSYDKAIEFNSDAYESFYNKGLALQSMKEYNEAINAYNKAIEIKSDYERAWYNLGNSLVNLNRYEDAFKAYDKAVQYKTDYAIAWLSRGNVLIILRRYPEALESFNQVIKFNPNNYQAWYGRGWSQHQNQRYAEAIESYKKAATIKPSNYEIWYSLGNSQYILQQYQEAIASYNKAVRYRPKHIESWYSRGNALFSLKQYKEAIASYEQAIKHKPDYSQAINARDEAQRQLQAATPKPVVIPVMPTPEFTNPPQDN | failed
9 | MLGVILLYVGMVLMSNGLHRLEGIPDKSNVVMNIFTGGLGLILNIIVIAYGACTGQGAEWFYGSATGLLFAFTYLYSAINTIFDFDQRLYGWFSLFVAINTLPAGILCLTSGYGGNAWYGIIWFLWGVLWLTAFIEINLKKNLGKFVPYLAIFEGIVTAWIPGLLMLWGKW | failed
10 | MLHELFSVYLKMLVLYSPFFVLSCFISLTRGHSSKERKQLAWKVAFAALVASVLLYLFGRAIFGIFGITADAFRIGAGSVLFISALGMAQGKPAVQADNVQQDVTIVPLTIPLTVGPGTIGALLVMGVSQPHWDEKLLAIVSIALASFTVGLVLYLSHGIERLLGDQGLQIVSRLMGLFVCALAAQIIFTGIRGYLLP | failed
11 | MLHLLTLSSLGRDLFNIKMLIVILITIGLITLMTILTYLLEQQVHRRQNRYWTIGAHGAEALSVLISMILLRQIFITLNSGSIISWTYATVQLTILLFSLNTMRNLAVEIINLLMPLFIYGQAIWLGHSTQYLPVFLAMAIILISTVVYITHNYQELHATQWKYLLFQILYSGTWWGVIWSVHPFKLSHTLVIILAFVLYMWLIRLAVNRVQKFFNEVLTFDQQVNYDELTGIRNRASFDTHAREVFAAYQHHQMGPVTMVMFDIDHFKAFNDQYGHLAGDAVLRHVAHFVELELNQRSTHGQIFRYGGEEFVIIFRGISALEAGQIMRTIQRKLKTVPIKFNVQTLNVTVSIGISELQPTDQTFTDWFVRVDDYLYQSKQAGRDQTTVESQLLTD | failed
12 | MLHSSIVLVIKEETMNVAKMYDDVSERYQKLVDDSHYVGPRWISGKLKTLPIEQGSALDLACATGSIGHVVKNHYPDLTIHGLDISSKMVDKARQTNLYQSVSVHNLDEPFSPLFEQTFDLITALGFTEFLAEPQQLLECISRKLTANGRCFISFQYHDPDGQDLPRNTYSGSVVHTAYTESEVEQLCQQAGLEVVSLENVIGYVSGVGYVCRYLMLELKKSHR | failed
13 | MLIERIYDEDLAQASYFIGCQAHNTAVVVDPRRDIAVYLDMAKKNGMEIVGVTETHIHADYLSGTRELAAATNATMYVSGEGGADWQYEFDAERICDGSEIRLGNLVLTAVHTPGHTPEHLSFLLKDGAFADEPGFMLTGDFVFAGDLGRPDLLDEAAGGVDTRFEGARQMFKSLKEKFLTLPDHIQIFPGHGSGSACGKALGSVPSTTLGYERQFAWWGKYLEADDEQGFIDELLEGQPDAPAYFGRMKRQNRQGPAIMGARELLPQLEASDLHDVIVVDTRSADEVHQGTVAGAVNIPAGNSMAKFGSWTVDPEKDSRALVLLAASQIGAMEMWDHMVRVGIDNVAGFITNFDGVDLVAPQTVSPDQLDELEYDLLLDVRNRSEVEEGYIPGALHINGASVLWNLEKLPRDGKIVSYCKSGTRSSIAASTLRNAGFDVVELQGSYDNWVRHNAQLEHHHHHH | not failed
14 | MLIKLTGGTVYDPANGIDGQVRNLFIRDGRIVHSLNGATPDQEYDLRGKVVMAGAIDMHTHIGGGKVTIARNLLPELEHHHHHH | not failed
15 | MLIRKADAQDLDAICRLAAQINRQHHQALPELFLAAADADADRAFWRARLEGEDSVLLVAEREGAVLAFLTAQLQSSPPLPFLQARRICRIGTIVVDEACQGQGIGSRLLAAAEDWGRRQDADELRLEVMQFNQGALAFYARHGLAAQSQIMSKSLAGAAR | failed
16 | MLIRPATTADFDALRAIELAAFETLRAAGAVSGSASASTDQQLQRYLDHGLLDVACDQSGEPIGFCGGYIAESFLHIGEMDVHPAWQRQGVGRRLLTALLEEARARKADGATLTTDRLVPFNAPFYASLGFRPLADDELPAKLREILDAEANMGLDPDRRIAMMLRF | failed
17 | MLIVDTILKPDRFGGIGLFSATRLPKGSLIWIHNPIVDITVTPEQYEALAPTFQALLDKHAYPRDYKAYDGVIEYNADNARFMNHSSRPNTYQDDRRVFTARDVQPGEELTCNYLFFDPRCDVSWNEEPSMNLDAPTG | failed
18 | MLKKIREEFGCIFARDPAAQSFFEILTVYPGVHAVLIHRFSHWLWNHGLHWPARVLSYLARWATGIEIHPGATLGRRLFIDHGMGVVIGETAVIGDDCTLYHGVTLGGTSWQKGKRHPTLGNGVVVGAGAKVLGPITVGDGARIGSNSVVLRTVPAGATVVGIPGHIINPDRRAQEAQRLAIASRLGFDAYGMTPDMPDPVAHAINHMLDHIQALDQQVAKLKEVLRERGIDLEEAPLPDLDDCQLDPGEPQVTVNSSRTGLEHHHHHH | not failed
19 | MLKKLAGALRTLMSVPADNPRLLEAQYVALSRQLPLMYFVLLVNTWALAFTHRETAPVWLTLLVPVLLTVICGIRARKWLLTVNRPPPAAATILATLRGTNSLAGVIAAGFAAWSLSLYPYGGPYAQAHVAFFMGITVIVCIFCMMHLRPAALTTAVVVNTAFVIFFASTHNLIFIATAVNIVLVSIGMLIILHHQYRDFTSLVDVQVRTEQLSNENLLLANKDSLTGLPNRRQFFQTLDAAMSEALALRSKLAVGVLDLDGFKPVNDLYGHRTGDRLLMLVAERLNSVASNTVHVSRLGGDEFALVIKGDISNEALLALGKHLCDLMHESFELSDMPIQIGATLGMATFPASADNATQLFEFADYALYQGKNHNPGTTCLFSASHREQLHTDGVTEQALRRANLETEFHVMFQPIIESCTCETVAFEALARWNSPELGAVSPAHFIPIAERIGMINKLTAPLLTHALQMALSWPAPIRLSFNLSAHDCATWESVSTIVEIIENSGFDASRLDLEITETAVMQDIAQVQQAIAQFRQLGCGISLDDFGTGFSSLSQLHALALTKLKIDRSFVTGVHDNPASYKIVKSLVALSLDMSLGCVIEGVETQDELNALTSLGCTMVQGYFYSPPISFAETLAWLETPDHERAFGYAAACRI | failed
20 | MLKKMLKSYDYSLIFAIVLLCGFGLVMVYSSSMITAVSRYGVSSNFFFMRQLFALIAGGALFILMALFPYKALAHQKFQKGILLVSVLALISLFVFGHVAGNAQSWFKIGGMSIQPGEFVKLVVILYLAAVYAKKQSYIDHLLTGVAPPVVMTLIICGLIAMQPDFGTAMIIGLIATCMILCSGFSGKTLVRLVILGGIVFILVSPIIYLNQDKILTEGRLARFESLEDPFKYANSSGLQVINSYYAISSGGIFGLGLGESIQKYGYLPESHTDFIMAVIAEELGIFGVLFVIFLLGFVVIKGFYIARKCEDPFGSLLAIGISSMIAIQSFINLGGVSGLIPITGVTLPFISYGGSSLVLLLGSMGILANISMFVKYSENKKKKEPLAPKGMKKKQLKKTVYL | failed
21 | MLKLFAKYTSIGVLNTLIHWVVFGVCIYVAHTNQALANFAGFVVAVSFSFFANAKFTFKASTTTMRYMLYVGFMGTLSATVGWAADRCALPPMITLVTFSAISLVCGFVYSKFIVFRDAK | failed
